Results: patent US20250171562A1 (ALK ABELL, published 2025)

Target: T1, recombinant human IgE (human, UniProt P01854-1 1-428)
T1 construct: made in-house (ALK); preloaded on immobilised FcεRIα in the displacement ELISA
Assay: IgE-FcεRIα displacement ELISA
Description: The displacement effect was tested using IgE-FcεRIα displacement ELISA assay. Maxisorp® microtiter plates (Thermo Scientific Nunc, Roskilde, Denmark) were coated with 100 μl streptavidin, 5 μg/ml (Thermo Scientific, Waltham, MA) for 18 h at 4° C. followed by wash with 300 μl washing buffer (PBS containing 0.05% Tween 20) using an AquaMax® 2000 plate washer (Molecular Devices, San Jose, CA). Remaining binding sites were blocked with 250 μl blocking buffer (PBS containing 2% BSA) for 2 h and washed with 300 μl washing buffer. Subsequently, the bound streptavidin was loaded with 100 μl (0.1 μg/ml) recombinant human FcεRIα (site specific biotinylated via avi-tag, made in-house, ALK, Hørsholm, Denmark) for 1 h and plates washed twice with 300 μl washing buffer. The bound receptor was then loaded with 100 μl recombinant human IgE (made in-house, ALK, Hørsholm, Denmark), 13 ng/ml (pre-titrated to reach an OD₄₅₀ signal in the range of 1.5-2.5 in the absence of displacement components) for 1h followed by three washes of 300 μl washing buffer.
displacement step: 100 μl sdAbs diluted in concentration series (pM-μM range) or blocking buffer only as a non-displacement negative control, were added to the ELISA wells and incubated for 1 h. Any IgE, displaced from the receptor by a sdAb was washed away by three washes of 300 μl washing buffer.
The ability of the various sdAbs to displace IgE from the receptor (FcεRIα) was evaluated by use of the ELISA based IgE-FcεRIα displacement assay. The percent displacement effect was calculated as the relative reduction in signal compared to the control with no sdAb added. The EC₅₀ values and the maximal effects were determined (table 15).

T1 sequence (P01854 other isoform, or with tags, fused parts or gaps): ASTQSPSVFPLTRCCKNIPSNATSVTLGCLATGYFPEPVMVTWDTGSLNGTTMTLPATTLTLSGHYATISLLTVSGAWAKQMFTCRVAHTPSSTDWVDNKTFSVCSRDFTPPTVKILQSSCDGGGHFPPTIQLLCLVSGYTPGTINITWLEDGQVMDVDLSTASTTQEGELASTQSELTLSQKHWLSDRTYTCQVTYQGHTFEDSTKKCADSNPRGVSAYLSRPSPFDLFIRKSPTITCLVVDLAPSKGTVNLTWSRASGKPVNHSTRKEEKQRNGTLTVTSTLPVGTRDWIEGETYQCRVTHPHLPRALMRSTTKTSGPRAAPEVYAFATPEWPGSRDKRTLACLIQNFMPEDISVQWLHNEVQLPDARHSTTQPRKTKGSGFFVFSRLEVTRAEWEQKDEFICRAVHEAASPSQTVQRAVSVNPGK

Row | EC50 [nM] | Max effect [%] | Binder
1 | 260 | – | NIgG4A1A1(G4S)1 (Fc fusion) chain 1: EVQLLESGGGLVQPGGSLRLSCAASGFTFGNYDMAWVRQAPGKRPEWVSSIDTGGDITHYADSVKGRFTISRDNAKNTLYLQMNSLRPEDTAVYWCATDEEYALGPNEFDYYGQGTLVTVSSGGGGSGPPCPPCPAPEFLGGPSVFLFPPKPKDTLMISRTPEVTCVVVDVSQEDPEVQFNWYVDGVEVHNAKTKPREEQFNSTYRVVSVLTVLHQDWLNGKEYKCKVSNKGLPSSIEKTISKAKGQPREPQVYTLPPCQEEMTKNQVSLWCLVKGFYPSDIAVEWESNGQPENNYKTTPPVLDSDGSFFLYSRLTVDKSRWQEGNVFSCSVMHEALHNHYTQKSLSLSLGK chain 2: EVQLLESGGGLVQPGGSLRLSCAASGFTFGNYDMAWVRQAPGKRPEWVSSIDTGGDITHYADSVKGRFTISRDNAKNTLYLQMNSLRPEDTAVYWCATDEEYALGPNEFDYYGQGTLVTVSSGGGGSGPPCPPCPAPEFLGGPSVFLFPPKPKDTLMISRTPEVTCVVVDVSQEDPEVQFNWYVDGVEVHNAKTKPREEQFNSTYRVVSVLTVLHQDWLNGKEYKCKVSNKGLPSSIEKTISKAKGQPREPQVCTLPPSQEEMTKNQVSLSCAVKGFYPSDIAVEWESNGQPENNYKTTPPVLDSDGSFFLVSRLTVDKSRWQEGNVFSCSVMHEALHNHYTQKSLSLSLGK
2 | 490 | – | NIgG4A1A1(RS) (Fc fusion) chain 1: EVQLLESGGGLVQPGGSLRLSCAASGFTFGNYDMAWVRQAPGKRPEWVSSIDTGGDITHYADSVKGRFTISRDNAKNTLYLQMNSLRPEDTAVYWCATDEEYALGPNEFDYYGQGTLVTVSSRSGPPCPPCPAPEFLGGPSVFLFPPKPKDTLMISRTPEVTCVVVDVSQEDPEVQFNWYVDGVEVHNAKTKPREEQFNSTYRVVSVLTVLHQDWLNGKEYKCKVSNKGLPSSIEKTISKAKGQPREPQVYTLPPCQEEMTKNQVSLWCLVKGFYPSDIAVEWESNGQPENNYKTTPPVLDSDGSFFLYSRLTVDKSRWQEGNVFSCSVMHEALHNHYTQKSLSLSLGK chain 2: EVQLLESGGGLVQPGGSLRLSCAASGFTFGNYDMAWVRQAPGKRPEWVSSIDTGGDITHYADSVKGRFTISRDNAKNTLYLQMNSLRPEDTAVYWCATDEEYALGPNEFDYYGQGTLVTVSSRSGPPCPPCPAPEFLGGPSVFLFPPKPKDTLMISRTPEVTCVVVDVSQEDPEVQFNWYVDGVEVHNAKTKPREEQFNSTYRVVSVLTVLHQDWLNGKEYKCKVSNKGLPSSIEKTISKAKGQPREPQVCTLPPSQEEMTKNQVSLSCAVKGFYPSDIAVEWESNGQPENNYKTTPPVLDSDGSFFLVSRLTVDKSRWQEGNVFSCSVMHEALHNHYTQKSLSLSLGK
3 | 3.5 | > 95 | CIgG4B1A1(G4S3) (Fc fusion) chain 1: GPPCPPCPAPEFLGGPSVFLFPPKPKDTLMISRTPEVTCVVVDVSQEDPEVQFNWYVDGVEVHNAKTKPREEQFNSTYRVVSVLTVLHQDWLNGKEYKCKVSNKGLPSSIEKTISKAKGQPREPQVYTLPPCQEEMTKNQVSLWCLVKGFYPSDIAVEWESNGQPENNYKTTPPVLDSDGSFFLYSRLTVDKSRWQEGNVFSCSVMHEALHNHYTQKSLSLSLGKGGGGSGGGGSGGGGSQVQLQESGGGLVQTGGSLRLSCAVHGRTFSNTGMGWFRQAPGNERQFVAIISPSGTSTYYADSVKGRFTISRDPAKNTVYLQMNSLKMDDTAVYYCAASYGSNWSTLRHQRRNEYDAWGQGTQVAVS chain 2: GPPCPPCPAPEFLGGPSVFLFPPKPKDTLMISRTPEVTCVVVDVSQEDPEVQFNWYVDGVEVHNAKTKPREEQFNSTYRVVSVLTVLHQDWLNGKEYKCKVSNKGLPSSIEKTISKAKGQPREPQVCTLPPSQEEMTKNQVSLSCAVKGFYPSDIAVEWESNGQPENNYKTTPPVLDSDGSFFLVSRLTVDKSRWQEGNVFSCSVMHEALHNHYTQKSLSLSLGKGGGGSGGGGSGGGGSEVQLLESGGGLVQPGGSLRLSCAASGFTFGNYDMAWVRQAPGKRPEWVSSIDTGGDITHYADSVKGRFTISRDNAKNTLYLQMNSLRPEDTAVYWCATDEEYALGPNEFDYYGQGTLVTVSS
4 | 4 | > 95 | CIgG4B1A1(G4S)2 (Fc fusion) chain 1: GPPCPPCPAPEFLGGPSVFLFPPKPKDTLMISRTPEVTCVVVDVSQEDPEVQFNWYVDGVEVHNAKTKPREEQFNSTYRVVSVLTVLHQDWLNGKEYKCKVSNKGLPSSIEKTISKAKGQPREPQVYTLPPCQEEMTKNQVSLWCLVKGFYPSDIAVEWESNGQPENNYKTTPPVLDSDGSFFLYSRLTVDKSRWQEGNVFSCSVMHEALHNHYTQKSLSLSLGKGGGGSGGGGSQVQLQESGGGLVQTGGSLRLSCAVHGRTFSNTGMGWFRQAPGNERQFVAIISPSGTSTYYADSVKGRFTISRDPAKNTVYLQMNSLKMDDTAVYYCAASYGSNWSTLRHQRRNEYDAWGQGTQVAVS chain 2: GPPCPPCPAPEFLGGPSVFLFPPKPKDTLMISRTPEVTCVVVDVSQEDPEVQFNWYVDGVEVHNAKTKPREEQFNSTYRVVSVLTVLHQDWLNGKEYKCKVSNKGLPSSIEKTISKAKGQPREPQVCTLPPSQEEMTKNQVSLSCAVKGFYPSDIAVEWESNGQPENNYKTTPPVLDSDGSFFLVSRLTVDKSRWQEGNVFSCSVMHEALHNHYTQKSLSLSLGKGGGGSGGGGSEVQLLESGGGLVQPGGSLRLSCAASGFTFGNYDMAWVRQAPGKRPEWVSSIDTGGDITHYADSVKGRFTISRDNAKNTLYLQMNSLRPEDTAVYWCATDEEYALGPNEFDYYGQGTLVTVSS
5 | 9.8 | > 95 | CIgG4B1A1(RS) (Fc fusion) chain 1: GPPCPPCPAPEFLGGPSVFLFPPKPKDTLMISRTPEVTCVVVDVSQEDPEVQFNWYVDGVEVHNAKTKPREEQFNSTYRVVSVLTVLHQDWLNGKEYKCKVSNKGLPSSIEKTISKAKGQPREPQVYTLPPCQEEMTKNQVSLWCLVKGFYPSDIAVEWESNGQPENNYKTTPPVLDSDGSFFLYSRLTVDKSRWQEGNVFSCSVMHEALHNHYTQKSLSLSLGKRSQVQLQESGGGLVQTGGSLRLSCAVHGRTFSNTGMGWFRQAPGNERQFVAIISPSGTSTYYADSVKGRFTISRDPAKNTVYLQMNSLKMDDTAVYYCAASYGSNWSTLRHQRRNEYDAWGQGTQVAVS chain 2: GPPCPPCPAPEFLGGPSVFLFPPKPKDTLMISRTPEVTCVVVDVSQEDPEVQFNWYVDGVEVHNAKTKPREEQFNSTYRVVSVLTVLHQDWLNGKEYKCKVSNKGLPSSIEKTISKAKGQPREPQVCTLPPSQEEMTKNQVSLSCAVKGFYPSDIAVEWESNGQPENNYKTTPPVLDSDGSFFLVSRLTVDKSRWQEGNVFSCSVMHEALHNHYTQKSLSLSLGKRSEVQLLESGGGLVQPGGSLRLSCAASGFTFGNYDMAWVRQAPGKRPEWVSSIDTGGDITHYADSVKGRFTISRDNAKNTLYLQMNSLRPEDTAVYWCATDEEYALGPNEFDYYGQGTLVTVSS
6 | 3.1 | > 95 | CIgG4B1A1(G4S)1 (Fc fusion) chain 1: GPPCPPCPAPEFLGGPSVFLFPPKPKDTLMISRTPEVTCVVVDVSQEDPEVQFNWYVDGVEVHNAKTKPREEQFNSTYRVVSVLTVLHQDWLNGKEYKCKVSNKGLPSSIEKTISKAKGQPREPQVYTLPPCQEEMTKNQVSLWCLVKGFYPSDIAVEWESNGQPENNYKTTPPVLDSDGSFFLYSRLTVDKSRWQEGNVFSCSVMHEALHNHYTQKSLSLSLGKGGGGSQVQLQESGGGLVQTGGSLRLSCAVHGRTFSNTGMGWFRQAPGNERQFVAIISPSGTSTYYADSVKGRFTISRDPAKNTVYLQMNSLKMDDTAVYYCAASYGSNWSTLRHQRRNEYDAWGQGTQVAVS chain 2: GPPCPPCPAPEFLGGPSVFLFPPKPKDTLMISRTPEVTCVVVDVSQEDPEVQFNWYVDGVEVHNAKTKPREEQFNSTYRVVSVLTVLHQDWLNGKEYKCKVSNKGLPSSIEKTISKAKGQPREPQVCTLPPSQEEMTKNQVSLSCAVKGFYPSDIAVEWESNGQPENNYKTTPPVLDSDGSFFLVSRLTVDKSRWQEGNVFSCSVMHEALHNHYTQKSLSLSLGKGGGGSEVQLLESGGGLVQPGGSLRLSCAASGFTFGNYDMAWVRQAPGKRPEWVSSIDTGGDITHYADSVKGRFTISRDNAKNTLYLQMNSLRPEDTAVYWCATDEEYALGPNEFDYYGQGTLVTVSS
